# Results as given in the Immune Epitope Database (IEDB).
# pKd: −log10 of the molar value.
# Columns and labels:
# Experiment in all cases: IEDB peptide-MHC binding, purified MHC/competitive/radioactivity; filed as Kd, often an IC50 or EC50 that approximates it; ≥ and ≤ were set here for values at or beyond the usual limits of such assays
# HLA-A*11:01 = target: HLA-A*11:01
# HLA-A*03:01 = target: HLA-A*03:01
# HLA-A*68:01 = target: HLA-A*68:01
# HLA-A*31:01 = target: HLA-A*31:01
# HLA-A*33:01 = target: HLA-A*33:01
# [1] = source organism: Dengue virus 2 Jamaica/1409/1983
# [2] = source organism: Triticum aestivum
# [3] = source organism: Dengue virus 4 Philippines/H241/1956
# [4] = source organism: SARS coronavirus Tor2
# [5] = source organism: Vaccinia virus WR
# [6] = source organism: Lymphocytic choriomeningitis virus (strain Armstrong)
# [7] = source organism: Dengue virus 1 Nauru/West Pac/1974
# [8] = source organism: Mammarenavirus guanaritoense
# [9] = source organism: Mammarenavirus machupoense
# [10] = source organism: Dengue virus 3 Martinique/1243/1999
Sequence,pKd (HLA-A*11:01; [5]),pKd (HLA-A*03:01; [5]),pKd (HLA-A*68:01; [5]),pKd (HLA-A*31:01; [5]),pKd (HLA-A*33:01; [5]),also measured
AIFLTTLSR,–,–,–,–,–,pKd (HLA-A*11:01; [1]): 7.18; pKd (HLA-A*03:01; [1]): 7.21
AIILHQQQK,–,–,–,–,–,pKd (HLA-A*11:01; [2]): 7.42; pKd (HLA-A*03:01; [2]): 6.98; pKd (HLA-A*68:01; [2]): 6.03; pKd (HLA-A*31:01; [2]): ≤ 4.69; pKd (HLA-A*33:01; [2]): ≤ 4.11
AINVLRGFRK,–,–,–,–,–,pKd (HLA-A*11:01; [1]): 6.59; pKd (HLA-A*03:01; [1]): 7.04
ALAPPVNDLK,–,–,–,–,–,pKd (HLA-A*03:01; [3]): 7.32
ALLGKKKNPR,–,–,–,–,–,pKd (HLA-A*31:01; [3]): 6.45
AQPCSDKAYK,–,–,–,–,–,pKd (HLA-A*11:01; [4]): 7.17; pKd (HLA-A*03:01; [4]): 6.50; pKd (HLA-A*68:01; [4]): 5.20; pKd (HLA-A*31:01; [4]): 5.95; pKd (HLA-A*33:01; [4]): 5.02
ASAFFGMSR,–,–,–,–,–,pKd (HLA-A*11:01; [4]): 6.83; pKd (HLA-A*03:01; [4]): 5.50; pKd (HLA-A*68:01; [4]): 6.71; pKd (HLA-A*31:01; [4]): 7.66; pKd (HLA-A*33:01; [4]): ≤ 4.38
ATLKNVTEVK,–,–,–,–,–,pKd (HLA-A*11:01; [3]): 6.55
ATSSFREKSR,8.86,7.23,8.72,8.44,6.79,–
ATYLGPQFCK,–,–,–,–,–,pKd (HLA-A*11:01; source organism: Mammarenavirus lassaense): 8.49
CAAYYFMKFR,–,–,–,–,–,pKd (HLA-A*11:01; [4]): 7.19; pKd (HLA-A*03:01; [4]): 6.68; pKd (HLA-A*68:01; [4]): 7.15; pKd (HLA-A*31:01; [4]): 7.96; pKd (HLA-A*33:01; [4]): 6.85
DAYNIADAAR,6.21,4.80,8.89,7.72,9.09,–
DITFLRPVLK,7.14,6.80,7.37,6.59,5.23,–
DKYGWLCKMH,–,–,–,–,–,pKd (HLA-A*11:01; [6]): ≤ 4.16; pKd (HLA-A*03:01; [6]): ≤ 4.15; pKd (HLA-A*68:01; [6]): ≤ 4.15; pKd (HLA-A*31:01; [6]): ≤ 4.23; pKd (HLA-A*33:01; [6]): ≤ 4.15
DLKWARFPK,–,–,–,–,–,pKd (HLA-A*11:01; [4]): 6.15; pKd (HLA-A*03:01; [4]): 5.25; pKd (HLA-A*68:01; [4]): 7.29; pKd (HLA-A*31:01; [4]): 6.41; pKd (HLA-A*33:01; [4]): 7.70
DSYTQVCDHR,–,–,–,–,–,pKd (HLA-A*33:01; [7]): 5.74
ECLRRRVTR,–,–,–,–,–,pKd (HLA-A*33:01; [3]): 6.61
ECYVQRFFLR,–,–,–,–,–,pKd (HLA-A*03:01; [8]): 4.75; pKd (HLA-A*68:01; [8]): 6.55; pKd (HLA-A*31:01; [8]): 8.22; pKd (HLA-A*33:01; [8]): 7.35
EECLRRRVTR,–,–,–,–,–,pKd (HLA-A*33:01; [3]): 6.11
FADNDRQDIY,≤ 4.34,≤ 4.15,5.90,≤ 4.15,≤ 4.15,–
FFAYVMNIER,4.97,5.95,8.49,6.98,7.82,–
FIHMVRCCK,5.70,6.57,8.20,6.38,6.44,–

Sequence,pKd (HLA-A*11:01; [5]),pKd (HLA-A*03:01; [5]),pKd (HLA-A*68:01; [5]),pKd (HLA-A*31:01; [5]),pKd (HLA-A*33:01; [5]),also measured
FLELKRGIYK,8.92,8.32,7.05,6.92,6.02,–
FLMAFANQIH,–,–,–,–,–,pKd (HLA-A*11:01; [9]): ≤ 4.16; pKd (HLA-A*03:01; [9]): 4.93; pKd (HLA-A*68:01; [9]): ≤ 4.50; pKd (HLA-A*31:01; [9]): ≤ 4.15; pKd (HLA-A*33:01; [9]): ≤ 4.62
FLSGRGLGK,–,–,–,–,–,pKd (HLA-A*03:01; [7]): 7.04
FSGKEPISDY,≤ 4.28,≤ 4.15,≤ 4.17,≤ 4.15,≤ 4.15,–
FTTNIWLKLR,–,–,–,–,–,pKd (HLA-A*68:01; [1]): 7.54; pKd (HLA-A*33:01; [1]): 7.17
FTTNIWMKFR,–,–,–,–,–,pKd (HLA-A*68:01; [3]): 8.76; pKd (HLA-A*31:01; [3]): 8.80; pKd (HLA-A*33:01; [3]): 7.53
FWKLVDRER,–,–,–,–,–,pKd (HLA-A*33:01; [10]): 7.35
GFDAWFSQR,–,–,–,–,–,pKd (HLA-A*11:01; [4]): ≤ 4.52; pKd (HLA-A*03:01; [4]): 4.75; pKd (HLA-A*68:01; [4]): 5.37; pKd (HLA-A*31:01; [4]): 6.88; pKd (HLA-A*33:01; [4]): 6.18
GLILFVLALY,5.14,≤ 4.66,6.34,≤ 4.36,≤ 4.57,–
GVTATITPR,–,–,–,–,–,pKd (HLA-A*31:01; [3]): 7.83
GVVFLHVTY,–,–,–,–,–,pKd (HLA-A*11:01; [4]): 5.47; pKd (HLA-A*03:01; [4]): 5.09; pKd (HLA-A*68:01; [4]): ≤ 4.22; pKd (HLA-A*31:01; [4]): 4.82; pKd (HLA-A*33:01; [4]): ≤ 4.11
HAKYMVTDK,5.24,6.34,6.74,5.30,4.84,–
HILHAYCGIK,5.86,6.64,5.56,4.87,≤ 4.15,–
IGQMFETTMR,–,–,–,–,–,pKd (HLA-A*33:01; [1]): 5.79
IIKLPTLFGR,6.86,7.05,7.16,9.60,7.76,–
IINFTISMR,7.31,7.38,8.42,8.65,7.01,–
ILRNYLRLY,5.34,6.19,≤ 4.49,5.08,5.52,–
ILSKWHTSAR,5.45,7.44,6.07,6.90,6.40,–
ISNMLSIINK,–,–,–,–,–,pKd (HLA-A*11:01; [10]): 6.95; pKd (HLA-A*03:01; [10]): 6.85
ITAKETLYR,–,–,–,–,–,pKd (HLA-A*11:01; [4]): 7.74; pKd (HLA-A*03:01; [4]): 6.88; pKd (HLA-A*68:01; [4]): 7.81; pKd (HLA-A*31:01; [4]): 6.71; pKd (HLA-A*33:01; [4]): 5.97
KATTQIAPK,8.32,7.34,5.15,7.06,≤ 4.41,–
KFNDYRKQMY,≤ 4.65,5.32,≤ 4.49,6.71,≤ 4.23,–
